In patent US20250002557A1 (SUZHOU LIGHT FERRY BIOMED, published 2025):

B1: VEGF-C (ligand, UniProt P49767 112-227, looked up)
chain: AHYNTEILKSIDNEWRKTQCMPREVCIDVGKEFGVATNTFFKPPCVSVYRCGGCCNSEGLQCMNTSTSYLSKTLFEITVPLSQGPKPVTISFANHTSCRCMSKLDVYRQVHSIIRR
notes: Bought reagent
B2: PDGF-BB (ligand, UniProt P01127 82-190, looked up)
chain: SLGSLTIAEPAMIAECKTRTEVFEISRRLIDRTNANFLVWPPCVEVQRCSGCCNNRNVQCRPTQVQLRPVQVRKIEIVRKKPIFKKATVTLEDHLACKCETVAAARPVT
notes: Bought reagent
B3: VEGFR2-Fc (Met1-Glu764) (Fc fusion)
chain: ASVGLPSVSLDLPRLSIQKDILTIKANTTLQITCRGQRDLDWLWPNNQSGSEQRVEVTECSDGLFCKTLTIPKVIGNDTGAYKCFYRETDLASVIYVYVQDYRSPFIASVSDQHGVVYITENKNKTVVIPCLGSISNLNVSLCARYPEKRFVPDGNRISWDSKKGFTIPSYMISYAGMVFCEAKINDESYQSIMYIVVVVGYRIYDVVLSPSHGIELSVGEKLVLNCTARTELNVGIDFNWEYPSSKHQHKKLVNRDLKTQSGSEMKKFLSTLTIDGVTRSDQGLYTCAASSGLMTKKNSTFVRVHEKPFVAFGSGMESLVEATVGERVRIPAKYLGYPPPEIKWYKNGIPLESNHTIKAGHVLTIMEVSERDTGNYTVILTNPISKEKQSHVVSLVVYVPPQIGEKSLISPVDSYQYGTTQTLTCTVYAIPPPHHIHWYWQLEEECANEPSQAVSVTNPYPCEEWRSVEDFQGGNKIEVNKNQFALIEGKNKTVSTLVIQAANVSALYKCEAVNKVGRGERVISFHVTRGPEITLQPDMQPTEQESVSLWCTADRSTFENLTWYKLGPQPLPIHVGELPTPVCKNLDTLWKLNATMFSNSTNDILIMELKNASLQDQGDYVCLAQDRKTKKRHCVVRQLTVLERVAPTITGNLENQTTSIGESIEVSCTASGNPPPQIMWFKDNETLVEDSGIVLKDGNRNLTIRRVRKEDEGLYTCQACSVLGCAKVEAFFIIEGAQEKTNLE
notes: also called VEGFR2-Fc with the full extracellular domain; Full VEGFR2 extracellular domain; not shown: Fc part
B4: VEGF-D (ligand, UniProt O43915 89-205, looked up)
chain: FAATFYDIETLKVIDEEWQRTQCSPRETCVEVASELGKSTNTFFKPPCVNVFRCGGCCNEESLICMNTSTSYISKQLFEISVPLTSVPELVPVKVANHTGCKCLPTAPRHPYSIIRR
notes: Bought reagent

Assays:
VEGFR2-Fc (Met1-Glu764) [1] = molecular target: B3; test: SPR Biacore T200 (Example 8)
VEGFR2-Fc (Met1-Glu764) [2] = molecular target: B3; test: SPR, PDGF coupled to CM5 chip, VEGFR2-Fc in flow; row label printed PDGF-BR
Description: Nevertheless, it was found in the preliminary detection experiments that PDGF family molecules (purchased from R&D Systems Inc.) were prone to produce non-specific binding in the chip, resulting in a pseudo-elevation in measured values, such that the detection could not be completed. Therefore, PDGF-AA, PDGF-AB, PDGF-BB and PDGF-CC molecules were separately loaded through a coupling reaction on a CM5 chip, followed by influx of the recombinant receptor molecules, thus effectively eliminating the impact of non-specific binding on affinity determination.

VEGF-D [3] = molecular target: B4; test: blocking ELISA: His-VEGF-D premixed with sample, binding to coated VEGFR2-Fc read with anti-His-HRP
Experimental: (§1) During the blocking period, each recombinant receptor molecule was serially diluted from high to low concentrations, mixed evenly with 100 ng/well of VEGF-C or VEGF-D (both labeled with His-tag), allowing for incubation at room temperature for 30 minutes. […] The plates were washed with PBST, then anti-polyhistidine secondary antibody conjugated with horseradish peroxidase was added to allow for incubation and binding at room temperature for 1 hour. Then the plates were washed with PBST, TMB was added for color development, terminated with 5% hydrochloric acid solution, and finally, the OD values at 450 nm were read using a microplate reader.

VEGF-D [4] = molecular target: B4; test: blocking ELISA: His-VEGF-D premixed with sample, binding to coated VEGFR3-Fc read with anti-His-HRP
Experimental: (§2) During the blocking period, each recombinant receptor molecule was serially diluted from high to low concentrations, mixed evenly with 10 ng/well of VEGF-C or 500 ng/well of VEGF-D (both labeled with His-tag), allowing for incubation at room temperature for 30 minutes. […] The plates were washed with PBST, then TMB was added for color development, terminated with 5% hydrochloric acid solution, and finally, the OD values at 450 nm were read using a microplate reader.

VEGF-C = molecular target: B1; test: ELISA binding to VEGF-C, absorbance 450 nm
Experimental: VEGF-A165, VEGF-C and VEGF-D polypeptide molecules were purchased from ACROBiosystems Inc. VEGF molecules at 100-300 ng/well prepared in PBS were used for coating overnight at 4° C., the next day, the plates were washed with PBS, and 1% BSA solution was added to block for 2 hours at room temperature, after which the plates were washed again with PBS. […] Goat anti-human Fc secondary antibody conjugated with horseradish peroxidase diluted in PBT was added, followed by incubation at room temperature and 300 rpm for 1 hour, after that, the plates were washed three times with PBST solution. Then TMB was added for color development, terminated with 5% hydrochloric acid solution, and finally, the OD values at 450 nm were read using a microplate reader.

VEGF-D [5] = molecular target: B4; test: blocking ELISA: His-VEGF-D premixed with sample, binding to coated VEGFR3-Fc read with anti-His-HRP; remark: listed apart in the source
Experimental: as §2

VEGF-D [6] = molecular target: B4; test: blocking ELISA: His-VEGF-D premixed with sample, binding to coated VEGFR2-Fc read with anti-His-HRP; remark: listed apart in the source
Experimental: as §1

In the case of B1, the Kd (VEGFR2-Fc (Met1-Glu764) [1]) is reported as 16.7 nM, the koff (VEGFR2-Fc (Met1-Glu764) [1]) is reported as 0.000452 s⁻¹ and the kon (VEGFR2-Fc (Met1-Glu764) [1]) is reported as 27100 M⁻¹ s⁻¹.

Binder B2 has a Kd (VEGFR2-Fc (Met1-Glu764) [2]) of 14.1 nM.

For B3, the EC50 (VEGF-D [3]) was 31.5 nM, the EC50 (VEGF-D [4]) was 33.4 nM and the EC50 (VEGF-C) was 269 nM. The EC50 (VEGF-D [5]) was 33.4 nM and the EC50 (VEGF-D [6]) was 31.5 nM.

In the case of B4, the Kd (VEGFR2-Fc (Met1-Glu764) [1]) is reported as 21 nM, the koff (VEGFR2-Fc (Met1-Glu764) [1]) is reported as 0.000673 s⁻¹ and the kon (VEGFR2-Fc (Met1-Glu764) [1]) is reported as 32100 M⁻¹ s⁻¹.
